Two substances from patent US12653899B2, “Multi-targeted, tunable, sustained delivery of payloads to charged avascular tissues” (Massachusetts Institute of Technology, priority 2019, dated 2026) can be followed below.

Series [1] deals with human cartilage explants (knee). The experiment in a line: Quantitative uptake of cationic S-GFPs into human knee cartilage explants. Type of series: in vitro ADME. To be noted: donor knee; PBS+1% BSA or BSF. The text has this:
Two human knee joint distal femurs were obtained through the Gift of Hope Organ and Tissue Donor Network (Itaska, IL). A Collins grade 0 normal knee was from a donor and a near-normal grade 1 from a person. (The Collins visual grading scale grades spans grades 0-4 [20], with grade 0=normal and grade 4=end stage osteoarthritis.) All procedures were approved by the Rush University Medical Center Institutional Review Board (ORA Number: 08082803IRB01-AM01) and the Committee on the Use of Humans as Experimental Subjects at MIT. […]
Experiments to quantify the uptake of GFPs into cartilage were started after the explants had been pre-equilibrated in culture medium for 48 h post-harvest. […] (Standard 96-well cell culture plates were not used because S-GFPs could stick to polystyrene even in the presence of BSA, leading to a loss of protein. In contrast, use of polypropylene with 1% BSA enabled complete recovery of fluorescence). […] At the same time, the fluorescence of the absorption bath was measured using a plate reader (Synergy H1, Biotek Instruments Inc.) (excitation: 485 nm, emission: 528 nm). […] At the end of the desorption in 10×PBS+1% BSA, cartilage explants were weighed and the fluorescence of the desorption bath was measured. […] The uptake ratio was calculated as the ratio of GFP concentration inside cartilage (mol/mg wet weight) to the final absorption bath concentration (mol/mL).

Series [2] deals with bovine cartilage explants. The experiment in a line: GFP penetration into bovine cartilage explants (confocal microscopy). Type of series: in vitro ADME. As for the experimental part: Bovine cartilage explants were incubated for either 24 h or 8 days (37° C., 5% CO2) in 1 μM solutions of the cationic S-GFPs dissolved in PBS+1% BSA. Similarly, explants were placed in 1 μM solutions of the neutral GFPs for either 18 h or 26 h. In a separate series of experiments, bovine cartilage explants were cultured in ultra-low attachment cell culture plates (Corning) for a period of 8 days in 1 μM solutions of cationic S-GFPs dissolved in low glucose (1 g/L) DMEM (with no phenol red) with 10% fetal bovine serum (FBS) supplemented with 2 mM Lglutamine, 100 U/mL penicillin, […] streptomycin, […] amphotericin, 10 mM HEPES buffer, 0.1 mM nonessential amino acids (NEAA) and 0.4 mM proline (37° C., 5% CO2). Media changes were performed every 48 h, and fresh cationic S-GFP were added with each media change. At the end of all such experiments, explants were sectioned longitudinally into […] slices and washed with PBS. Primary bovine chondrocytes were incubated for 24 h (37° C., 5% CO2) in 100 nM solutions of GFPs dissolved in serum-free medium having the same composition as that described in the bovine cartilage harvest section. At the end of 24 h, chondrocytes were washed three times with heparin dissolved in PBS (20 U/mL) to remove non-internalized GFPs, fixed with 4% paraformaldehyde, stained with DAPI and washed with PBS. […]

Turning to “+25 GFP: engineered supercharged green fluorescent protein carrier with net positive charge +25, SEQ ID NO: 3”, the “24 h uptake ratio compared among cationic S-GFPs” value in series [1] is recorded as “significantly lower compared to the other two GFP variants”.

Consider “+36 GFP: engineered supercharged green fluorescent protein carrier with net positive charge +36, SEQ ID NO: 4”, for which, in series [1], the “24 h uptake ratio compared among cationic S-GFPs” value is on record as “significantly lower compared to the other two GFP variants”. In addition, the “extent of penetration into cartilage explant” value in series [2] (24 h in PBS+1% BSA, 1 mm thick bovine explants) is on record as “did not”. Besides, the “localization within cartilage explant” value in series [2] (by day 8 in PBS+1% BSA, bovine explants) is reported as “localized primarily inside chondrocytes throughout the tissue thickness”.
